Assay results from publication PMC3079584, “A Cytoplasmic Complex Mediates Specific mRNA Recognition and Localization in Yeast”.

Assays:
She2p [1] = target: T1, She2p (Saccharomyces cerevisiae, UniProt P36068 1-246); assay: filter binding; range over three control RNAs; EMSA: 20 mM HEPES pH 7.8, 200 mM NaCl, 2 mM MgCl2, 2 mM DTT, 4% glycerol, 30 or 100 ug/ml yeast tRNA, 5 nM RNA, 20 C; filter binding: 20 mM HEPES pH 7.4-7.5 (7.9 with She3p), 150 mM NaCl, 2 mM MgCl2, 2 mM DTT, 30 ug/ml yeast tRNA, 0.5 nM RNA; pull-down: HNMD buffer, 4 C; settings: protein: recombinant; tags: GST tag (PreScission-cleaved); chain copies: 4; label: 32P; hairpin
She2p;She3p [2] = target: T2, She2p;She3p (Saccharomyces cerevisiae;Saccharomyces …, UniProt P36068;P38272 1-246;1-425, |); assay: EMSA; She3p constant 25 nM, She2p varied; EMSA: 20 mM HEPES pH 7.8, 200 mM NaCl, 2 mM MgCl2, 2 mM DTT, 4% glycerol, 30 or 100 ug/ml yeast tRNA, 5 nM RNA, 20 C; filter binding: 20 mM HEPES pH 7.4-7.5 (7.9 with She3p), 150 mM NaCl, 2 mM MgCl2, 2 mM DTT, 30 ug/ml yeast tRNA, 0.5 nM RNA; pull-down: HNMD buffer, 4 C; settings: protein: recombinant;recombinant; tags: GST tag (PreScission-cleaved);C-terminal His6; chain copies: 4;2; label: 32P; stem-loop
Target sequence in this assay (P36068 whole entry, one chain of several): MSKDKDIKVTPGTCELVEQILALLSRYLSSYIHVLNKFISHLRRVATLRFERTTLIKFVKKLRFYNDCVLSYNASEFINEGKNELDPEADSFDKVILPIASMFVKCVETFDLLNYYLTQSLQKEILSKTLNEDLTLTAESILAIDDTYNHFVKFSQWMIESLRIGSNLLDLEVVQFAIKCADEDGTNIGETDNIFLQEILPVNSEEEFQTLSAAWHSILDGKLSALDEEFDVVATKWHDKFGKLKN

She3p [3] = target: T3, She3p (Saccharomyces cerevisiae, UniProt P38272 1-425); assay: EMSA; subtle shift at 25 nM She3p; EMSA: 20 mM HEPES pH 7.8, 200 mM NaCl, 2 mM MgCl2, 2 mM DTT, 4% glycerol, 30 or 100 ug/ml yeast tRNA, 5 nM RNA, 20 C; filter binding: 20 mM HEPES pH 7.4-7.5 (7.9 with She3p), 150 mM NaCl, 2 mM MgCl2, 2 mM DTT, 30 ug/ml yeast tRNA, 0.5 nM RNA; pull-down: HNMD buffer, 4 C; settings: protein: recombinant; tags: C-terminal His6; label: 32P; stem-loop
T3 sequence: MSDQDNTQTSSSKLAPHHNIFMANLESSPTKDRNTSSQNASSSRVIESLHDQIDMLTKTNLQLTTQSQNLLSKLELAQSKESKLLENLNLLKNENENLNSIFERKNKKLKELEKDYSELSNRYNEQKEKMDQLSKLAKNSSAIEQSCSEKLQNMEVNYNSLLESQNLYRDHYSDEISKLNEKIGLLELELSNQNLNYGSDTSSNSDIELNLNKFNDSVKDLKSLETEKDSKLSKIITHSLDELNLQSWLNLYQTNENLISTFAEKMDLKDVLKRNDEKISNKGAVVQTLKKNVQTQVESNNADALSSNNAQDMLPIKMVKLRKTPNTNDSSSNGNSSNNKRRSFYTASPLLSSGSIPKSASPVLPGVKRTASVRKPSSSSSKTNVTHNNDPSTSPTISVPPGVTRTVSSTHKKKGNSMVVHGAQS

She3p [4] = target: T3, She3p; assay: UV cross-linking; EMSA: 20 mM HEPES pH 7.8, 200 mM NaCl, 2 mM MgCl2, 2 mM DTT, 4% glycerol, 30 or 100 ug/ml yeast tRNA, 5 nM RNA, 20 C; filter binding: 20 mM HEPES pH 7.4-7.5 (7.9 with She3p), 150 mM NaCl, 2 mM MgCl2, 2 mM DTT, 30 ug/ml yeast tRNA, 0.5 nM RNA; pull-down: HNMD buffer, 4 C; settings: protein: recombinant; tags: C-terminal His6; label: 32P; stem-loop
She2p [5] = target: T1, She2p; assay: as above; settings: protein: recombinant; tags: GST tag (PreScission-cleaved); chain copies: 4; label: 32P; stem-loop
She2p;She3p [6] = target: T2, She2p;She3p; assay: EMSA; She3p constant 25 nM; Kd stated as in similar range; EMSA: 20 mM HEPES pH 7.8, 200 mM NaCl, 2 mM MgCl2, 2 mM DTT, 4% glycerol, 30 or 100 ug/ml yeast tRNA, 5 nM RNA, 20 C; filter binding: 20 mM HEPES pH 7.4-7.5 (7.9 with She3p), 150 mM NaCl, 2 mM MgCl2, 2 mM DTT, 30 ug/ml yeast tRNA, 0.5 nM RNA; pull-down: HNMD buffer, 4 C; settings: protein: recombinant;recombinant; tags: GST tag (PreScission-cleaved);C-terminal His6; chain copies: 4;2; label: 32P; stem-loop
Target sequence in this assay (P36068 whole entry, chain 1 of 2, one chain of several): as the sequence (P36068 whole entry, one chain of several) above

She2p;She3p [7] = target: T2, She2p;She3p; assay: size-exclusion chromatography; pull-down; EMSA: 20 mM HEPES pH 7.8, 200 mM NaCl, 2 mM MgCl2, 2 mM DTT, 4% glycerol, 30 or 100 ug/ml yeast tRNA, 5 nM RNA, 20 C; filter binding: 20 mM HEPES pH 7.4-7.5 (7.9 with She3p), 150 mM NaCl, 2 mM MgCl2, 2 mM DTT, 30 ug/ml yeast tRNA, 0.5 nM RNA; pull-down: HNMD buffer, 4 C; settings: protein: recombinant;recombinant; tags: GST tag (PreScission-cleaved);C-terminal His6; chain copies: 4;2; stem-loop
Target sequence in this assay (P36068 whole entry, one chain of several): as the sequence (P36068 whole entry, one chain of several) above

Puf6p;She2p = Puf6p;She2p (Saccharomyces cerevisiae;Saccharomyces …, UniProt Q04373;P36068 2-656;1-246, |); assay: pull-down; GST-Puf6p immobilized; EMSA: 20 mM HEPES pH 7.8, 200 mM NaCl, 2 mM MgCl2, 2 mM DTT, 4% glycerol, 30 or 100 ug/ml yeast tRNA, 5 nM RNA, 20 C; filter binding: 20 mM HEPES pH 7.4-7.5 (7.9 with She3p), 150 mM NaCl, 2 mM MgCl2, 2 mM DTT, 30 ug/ml yeast tRNA, 0.5 nM RNA; pull-down: HNMD buffer, 4 C; settings: protein: recombinant;recombinant; tags: GST tag (cleaved for EMSA; retained in GST pull-downs);GST tag (PreScission-cleaved); copies: 1;4; stem-loop
She2p (ΔhE) = She2p (ΔhE) (Saccharomyces cerevisiae, UniProt P36068 1-246, del174-183); assay: size-exclusion chromatography; binary co-complex; EMSA: 20 mM HEPES pH 7.8, 200 mM NaCl, 2 mM MgCl2, 2 mM DTT, 4% glycerol, 30 or 100 ug/ml yeast tRNA, 5 nM RNA, 20 C; filter binding: 20 mM HEPES pH 7.4-7.5 (7.9 with She3p), 150 mM NaCl, 2 mM MgCl2, 2 mM DTT, 30 ug/ml yeast tRNA, 0.5 nM RNA; pull-down: HNMD buffer, 4 C; settings: protein: recombinant; tags: GST tag (PreScission-cleaved); chain copies: 2; stem-loop
She2p (ΔC);She3p = She2p (ΔC);She3p (Saccharomyces cerevisiae;Saccharomyces …, UniProt P36068;P38272 1-240;1-425, |); assay: size-exclusion chromatography; EMSA: 20 mM HEPES pH 7.8, 200 mM NaCl, 2 mM MgCl2, 2 mM DTT, 4% glycerol, 30 or 100 ug/ml yeast tRNA, 5 nM RNA, 20 C; filter binding: 20 mM HEPES pH 7.4-7.5 (7.9 with She3p), 150 mM NaCl, 2 mM MgCl2, 2 mM DTT, 30 ug/ml yeast tRNA, 0.5 nM RNA; pull-down: HNMD buffer, 4 C; settings: protein: recombinant;recombinant; tags: GST tag (PreScission-cleaved);C-terminal His6; stem-loop
Puf6p;She2p;She3p = Puf6p;She2p;She3p (Saccharomyces cerevisiae;Saccharomyces …, UniProt Q04373;P36068;P38272 2-656;1-246;1-425, ||); assay: pull-down; His-She3p or GST-Puf6p immobilized; EMSA: 20 mM HEPES pH 7.8, 200 mM NaCl, 2 mM MgCl2, 2 mM DTT, 4% glycerol, 30 or 100 ug/ml yeast tRNA, 5 nM RNA, 20 C; filter binding: 20 mM HEPES pH 7.4-7.5 (7.9 with She3p), 150 mM NaCl, 2 mM MgCl2, 2 mM DTT, 30 ug/ml yeast tRNA, 0.5 nM RNA; pull-down: HNMD buffer, 4 C; settings: protein: recombinant;recombinant;recombinant; tags: GST tag (cleaved for EMSA; retained in GST pull-downs);GST tag (PreScission-cleaved);C-terminal His6; stem-loop
She3p [8] = target: T3, She3p; assay: EMSA; EMSA: 20 mM HEPES pH 7.8, 200 mM NaCl, 2 mM MgCl2, 2 mM DTT, 4% glycerol, 30 or 100 ug/ml yeast tRNA, 5 nM RNA, 20 C; filter binding: 20 mM HEPES pH 7.4-7.5 (7.9 with She3p), 150 mM NaCl, 2 mM MgCl2, 2 mM DTT, 30 ug/ml yeast tRNA, 0.5 nM RNA; pull-down: HNMD buffer, 4 C; settings: protein: recombinant; tags: C-terminal His6; label: 32P; stem-loop
Puf6p = Puf6p (Saccharomyces cerevisiae, UniProt Q04373 2-656); assay: as above; settings: protein: recombinant, tags: GST tag (cleaved for EMSA; retained in GST pull-downs), label: 32P
Chain of Puf6p (Q04373 2-656): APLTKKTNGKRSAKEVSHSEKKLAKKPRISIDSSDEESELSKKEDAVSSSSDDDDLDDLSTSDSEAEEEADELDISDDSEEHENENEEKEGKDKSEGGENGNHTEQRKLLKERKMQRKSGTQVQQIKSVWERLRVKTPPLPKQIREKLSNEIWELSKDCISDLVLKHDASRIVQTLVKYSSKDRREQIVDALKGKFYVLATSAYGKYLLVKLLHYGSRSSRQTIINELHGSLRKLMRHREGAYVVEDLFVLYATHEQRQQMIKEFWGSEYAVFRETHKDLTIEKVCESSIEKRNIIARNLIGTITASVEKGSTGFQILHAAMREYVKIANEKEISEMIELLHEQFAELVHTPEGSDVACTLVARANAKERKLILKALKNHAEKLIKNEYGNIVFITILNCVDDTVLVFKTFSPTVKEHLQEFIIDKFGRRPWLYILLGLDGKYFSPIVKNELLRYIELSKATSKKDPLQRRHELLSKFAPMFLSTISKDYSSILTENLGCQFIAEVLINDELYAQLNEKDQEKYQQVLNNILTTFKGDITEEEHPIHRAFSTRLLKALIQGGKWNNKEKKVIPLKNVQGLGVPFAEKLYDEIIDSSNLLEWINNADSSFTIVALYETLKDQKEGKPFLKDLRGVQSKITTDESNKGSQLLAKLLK

T1 sequence (P36068 whole entry): as the sequence (P36068 whole entry, one chain of several) above
Chain of Puf6p;She2p (Q04373 2-656, chain 1 of 2): as the sequence (Q04373 2-656) above
Chain of Puf6p;She2p (P36068 whole entry, chain 2 of 2): as the sequence (P36068 whole entry, one chain of several) above
Chain of Puf6p;She2p;She3p (Q04373 2-656, chain 1 of 2): as the sequence (Q04373 2-656) above
Chain of Puf6p;She2p;She3p (P36068 whole entry, chain 2 of 2): as the sequence (P36068 whole entry, one chain of several) above
Chain of She2p (ΔhE) (P36068 other isoform, or with tags, fused parts or gaps del174-183 | mutant): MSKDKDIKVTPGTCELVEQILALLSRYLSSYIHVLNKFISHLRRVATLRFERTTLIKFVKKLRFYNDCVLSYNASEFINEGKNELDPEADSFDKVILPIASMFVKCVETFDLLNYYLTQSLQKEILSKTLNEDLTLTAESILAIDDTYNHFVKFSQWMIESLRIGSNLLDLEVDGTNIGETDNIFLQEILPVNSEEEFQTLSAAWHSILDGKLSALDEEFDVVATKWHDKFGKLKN
Chain of She2p (ΔC);She3p (P36068 1-240, stated change not applied, one chain of several): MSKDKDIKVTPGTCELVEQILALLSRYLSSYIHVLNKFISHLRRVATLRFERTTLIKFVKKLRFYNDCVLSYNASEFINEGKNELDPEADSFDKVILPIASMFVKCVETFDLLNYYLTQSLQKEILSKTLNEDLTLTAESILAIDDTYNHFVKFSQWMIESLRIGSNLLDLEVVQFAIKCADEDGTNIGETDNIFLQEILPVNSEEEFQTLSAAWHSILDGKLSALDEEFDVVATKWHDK

## UUAUCCAUUGCACUCCGGAUGU (structured_RNA) [U1 snRNA hairpin II]
She2p [1]
  Kd: ~1330 nM

B1: ASH1 E2A (structured_RNA)
RNA: UUGCGAAUAGAGACAUUCUAUCGAACAAUUCCAAAUCUAAUGUAAGGAAACCAUCUAAGAACAAAAUCUCAAAGCAA
She2p;She3p [2]
  Kd: ~25 nM
She3p [3]
  binding result: binds

B2: ASH1 E2B (domain 1) (structured_RNA)
RNA: AUCUUCAUCUCCAUCUCCCUCCACACCGACGAAAAGUGGCAAGAUGAGAUCAAGAUCA
She2p;She3p [2]
  Kd: ~25 nM

B3: ASH1 E3-51 (structured_RNA)
RNA: AUGGAUAACUGAAUCUCUUUCAACUAAUAAGAGACAUUAUCACGAAACAAU
She3p [4]
  binding result: binds
She2p [5]
  binding result: binds
She2p;She3p [6]
  Kd: ~25 nM

B4: E3-118-tRNA (structured_RNA)
RNA: GGCUACGUAGCUCAGUUGGUUAGAGCAGCGGCCGGAGACAGUAGAGAAUUGAUACAUGGAUAACUGAAUCUCUUUCAACUAAUAAGAGACAUUAUCACGAAACAAUUGUACAUUUCUCUCCUUGUCUGUGCUAAAUAAACUACAAAUAAAAACCGCGGGUCACAGGUUCGAAUCCCGUCGUAGCCACCA
She2p;She3p [7]
  binding result: binds
Puf6p;She2p
  binding result: binds
She2p (ΔhE)
  binding result: binds
She2p (ΔC);She3p
  binding result: binds
Puf6p;She2p;She3p
  binding result: binds

## CGAAGAUGAAAAUGAUCACGAGAGAGAUCCCGAACAAUUUUCAGAAUUUG (structured_RNA) [EAR1 zip code]
She2p;She3p [2]
  Kd: ~25 nM
She3p [8]
  binding result: binds
Puf6p; stem-loop
  binding result: binds

## CGAGCCUGGGAGCUCG (structured_RNA) [HIV-1 TAR (16 bases)]
She2p [1]
  Kd: ~1330 nM

B5: HIV-1 TAR (57 bases) (structured_RNA)
RNA: GGUCUCUCUGGUUAGACCAGAUCUGAGCCUGGGAGCUCUCUGGCUAACUAGGGAACC
She2p [1]
  Kd: ~1330 nM

B6: Poly(A)60 (ssRNA)
RNA: AAAAAAAAAAAAAAAAAAAAAAAAAAAAAAAAAAAAAAAAAAAAAAAAAAAAAAAAAAAA
Puf6p
  binding result: binds

B7: ASH1 E1 (structured_RNA)
RNA: AAGACUAUGUUAAAAUACGCGAAGAAGUGGCUCAUUUCAAGCCAUUAAGUAUACCCAACUUAACUAAUAAUCAAAAUAA
She2p;She3p [2]
  Kd: ~25 nM
She3p [3]
  binding result: binds
